# Columns and labels:
# [1] = molecular target: 2D-CD4-gp120 (Ba-L) complex (human | HIV-1 isolate Ba-L); experiment: ELISA; hybridoma culture supernatants diluted 1:1 on solid-phase 2D-CD4, gp120 (Ba-L) or the 2D-CD4/gp120 (Ba-L) complex; values qualitative
# [2] = molecular target: two-domain (2D) soluble CD4 (amino acids 1 to 183) (human); experiment: as above
binder,measurement,setting,value
"MAb DB81 (antibody, V domains shown) VH: EVQLQQSGPELVKPGASVKISCKASGYSFTDYTMLWVKQSHGKSLEWIGNINPYYDTTTYNLNFKGKATMTVDKSSSTAYMQLNSLTSEDSAVYYCAREGDYGHPFAYWGQGTLVTVSS VL: DIVMTQSHKFMSTSVGDRVSITCKASQDVSTTVAWYQQKPGQSPKLLIYSASYRYTGVPDRFTGSGSGTDFTFTISSVQAEDLAVYYCQQHYSTPPTFGGGTKLEIR",Binding to CD4-gp120 (ELISA reading),[1],2
same,Binding to CD4 (ELISA reading),[2],1.23
